{"source": "patent US9168297B2", "about": "“Regulation of skin pigmentation by neuregulin-1 (NRG-1)” (The United States of America, as Represented by the …, priority 2010, dated 2015)", "assay_type_in_all_cases": "cell-based, human", "key": {"[1]": {"system": "HEM-LP melanocytes", "assay": "Melanin content assay (melanin/protein)", "conditions": "NRG-1 50 ng/ml", "protocol": "(§1) FIGS. 6A and 6B are bar graphs illustrating the effect of NRG-1 on the pigmentation of cultured human melanocytes. FIG. 6A) Lightly-pigmented (HEM-LP) and FIG. 6B) Darkly-pigmented (HEM-DP) melanocytes were treated with or without NRG-1 (50 ng/ml) for 1, 3, 5 or 9 days and proteins were extracted from each sample. After centrifugation at 10,000 g for 15 minutes, precipitates were analyzed for melanin content, and the supernatants were analyzed for protein content. Results are the average of three studies±SD; statistically significant differences are indicated.\n(§2) Melanin contents were determined by dissolving cell pellets overnight at room temperature in 200 μl 1 N NaOH, and melanin concentrations were quantitated by absorbance at 405 nm in a SpectraMax 250 ELISA reader (Molecular Devices) using a standard curve generated from synthetic melanin (Sigma-Aldrich, St. Louis, Mo.). Melanin content is expressed as μg melanin per μg protein. Each study was repeated at least three times.\n(§3) The effects of NRG-1 on the pigmentation of human melanocytes were also examined. […] However, on day 9, when the cells had reached confluence, the pigmentation level of NRG-1-treated HEM-LP melanocytes was about 35% higher than the control (FIG. 6A)."}, "[2]": {"system": "ERBB2 mRNA", "assay": "ERBB2 mRNA level by RT-PCR in melanocytes", "conditions": "HEM-LP and HEM-DP, NRG-1 50 ng/ml, 1 day, vs controls", "protocol": "FIGS. 8A and 8B are digital images illustrating the mechanism of ERBB2 abrogation after NRG-1 treatment. FIG. 8A) ERBB2 mRNA levels in HEM-LP and in HEM-DP melanocytes were detected by RT-PCR after treatment with or without NRG-1 (50 ng/ml) for 1 day. FIG. 8B) MG132 (120 nM) was added to the melanocyte culture medium to inhibit proteasomal degradation during treatment of HEM-LP and HEM-DP melanocytes with or without NRG-1 (50 ng/ml). Proteins were extracted for each sample, and ERBB2 levels were detected by western blotting. Results are representative of three studies.\nTotal RNAs were isolated from cells using an RNeasy mini kit (Qiagen, Valencia, Calif.), and 500 ng RNA of each sample was used for reverse transcription. […]\nWhether the decrease in ERBB2 level elicited by NRG-1 was due to transcriptional regulation or to proteasomal degradation was further explored. When ERBB2 mRNA levels were measured after 1 day of treatment with NRG-1, NRG-1 treated cells and controls were similar both for HEM-LP and for HEM-DP melanocytes (FIG. 8A) despite the marked decrease in ERBB2 protein expression noted above."}, "[3]": {"system": "HEM-DP melanocytes", "assay": "Melanin content assay (melanin/protein)", "conditions": "NRG-1 50 ng/ml", "protocol": "as §1\nFIGS. 9A and 9B are digital images illustrating the effect of pan-ERBB inhibitors on NRG-1 action on human melanocytes and MelanoDerms. FIG. 9A) HEM-DP melanocytes were treated for 9 days with 50 ng/ml NRG-1 in the presence of C39 (0.5 μM) or CI-1033 (2 μM) or vehicle (DMSO) alone. The results are the averages of 3 independent studies±SD. FIG. 9B) Dark MelanoDerms were treated for 9 days with 50 ng/ml NRG-1 in the presence of C39 (0.5 μM) or CI-1033 (2 μM) or vehicle (DMSO) alone. L values shown are the average of 3 spots measured in the center of each Melanoderm.\nas §2, §3\nThe EGF domain of NRG-1 can activate the NRG-1 receptors. Two exemplary EGF domains of NRG-1 were aligned (SEQ ID NOs: 9 and 10) and 5 different […] peptides within these two sequences were designed (FIG. 12). Darkly-pigmented human epidermal melanocytes (HEM-DP) were treated with each of the […] peptides (100 nM) or the commercially available rhNRG-1 (6.25 nM) or the vehicle only (0.1% BSA in PBS) every other day for 7 days.\nIn particular, HEM-DP were treated with each of the 8-mer peptides (WC-6, […], amino acids 3-10 of SEQ ID NO: 10; WC-7, […], amino acids 8-15 of SEQ ID NO: 10; WC-8, […], amino acids 12-19 of SEQ ID NO: 10; WC-9, […], amino acids 16-23 of SEQ ID NO: 10; WC-10, […], amino acids 20-27 of SEQ ID NO: 10; 100 nM) or the full length EGF domain of NRG-1 (WC-11, SEQ ID NO: 10, 100 nM) or the commercially available rhNRG-1 (SEQ ID NO: 11, 6.25 nM) or vehicle only (0.1% BSA in PBS) every day for 9 days."}}}
{"molecule": "NRG-1: commercially available recombinant human neuregulin-1 (rhNRG-1-β1, R&D Systems), SEQ ID NO: 11 (protein) TSHLVKCAEKEKTFCVNGGECFMVKDLSNPSRYLCKCPNEFTGDRCQNYVMASFYKHLGIEFMEAEELYQK", "values": [{"measurement": "Pigmentation level higher than the control", "setting": "[1]; day 9, confluent", "result": "about 35%"}, {"measurement": "Level of pigmentation (melanin/protein)", "setting": "[1]; days 1 through 5, subconfluent, vs control", "result": "not significantly different"}, {"measurement": "ERBB2 mRNA levels", "setting": "[2]", "result": "similar"}, {"measurement": "Melanin content, NRG-1 alone", "setting": "[3]; 9 days, vehicle DMSO", "result": "stimulated melanin content"}, {"measurement": "Pigmentation level", "setting": "[3]; day 9, vs controls", "result": "remained higher"}, {"measurement": "Pigmentation level", "setting": "[3]; starting at day 5, subconfluent, vs controls", "result": "higher than the controls"}]}
